{"source": "patent US6165749", "test_system": "AccIII restriction endonuclease (L2V) L2V", "assay": "cleavage_in_vitro", "conditions": "Takara data sheet conditions; about 16 times the level of the Acc bacterium", "data": [{"substance": "AccIII assay substrate DNA (data sheet conditions)", "values": [{"measurement": "activity (units per g wet cells)", "value": 8000}]}]}
